Reference: patent US20160046672A1, “STAPLING eIF4E INTERACTING PEPTIDES” (AGENCY FOR SCIENCE, TECHNOLOGY AND RESEARCH, priority 2013, published 2016)
Positions of bridges follow the written chain, without caps; N, C: chain ends. Non-standard residues stand in square brackets, D forms with d. Residues, ends and D or L forms follow the SMILES beside them. S5 = C=CCCC[C@](C)(N)C(=O)O; Abu = CC[C@H](N)C(=O)O; Aib = CC(C)(N)C(=O)O

How the values were obtained:
[1] = Circular dichroism, percent α-helicity in solution; type: physicochemical; conditions: CD, 5 mM sodium phosphate buffer pH 7.0
Experimental: CD was measured on a JASCO J-810 spectropolarimeter, and spectra were either recorded with a quartz cuvette (Helmer) with a pathlength of 0.01 cm or 0.1 cm in 5 mM sodium phosphate buffer (pH 7.0). FUV CD spectra were recorded from 260 nm to 200 nm at a peptide concentration of either 2 mg/ml or 0.5 mg/ml, respectively. The CD signal was converted into mean residue ellipticity in units of degree·cm^2·dmol^−1·residue^−1. CD spectra were recorded at a data pitch of 0.2 nm at 50 nm min^−1, a response time of 2 s, and a bandwidth of […]. Once converted to mean residue ellipticity, percent α-helicity can be calculated with equation (1) and (2): […]

[2] = circular dichroism; conditions: 5 mM sodium phosphate; pH 7.0; ns °C; 0.5 or 2 mg/mL
[3] = target: T1, eIF4E (Homo sapiens, UniProt P06730); assay: eIF4E affinity (SPR/FP, method not named); type: binding
T1 construct: made in house
T1 sequence (P06730 whole entry): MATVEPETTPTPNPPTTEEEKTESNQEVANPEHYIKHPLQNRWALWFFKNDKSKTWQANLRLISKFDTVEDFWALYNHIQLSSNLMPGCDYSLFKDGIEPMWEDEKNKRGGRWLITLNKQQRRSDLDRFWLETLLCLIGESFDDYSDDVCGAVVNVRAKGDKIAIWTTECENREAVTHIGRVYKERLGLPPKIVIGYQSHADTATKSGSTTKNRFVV
Experimental: Apparent Kd values were determined for a variety of molecules via competitive anisotropy anisotropy experiments. Titrations were carried out with the concentrations eIF4E held constant at 200 nM, respectively and the labeled peptide at 50 nM. The competing molecules were then titrated against complex of the FAM labeled peptide and protein. Apparent Kd values were determined by fitting the experimental data to the equations shown below: […]
Six buffer blanks were first injected to equilibrate the instrument fully and then a solvent correction curve was performed followed by a further two blank injections. […] Using a flow rate of 50 μl/min, compounds were injected for 60 s and dissociation was monitored for 180 s. The data collection rate was 10 Hz. Kds were determined using the BiaEvaluation software (Biacore) and calculated kinetically from the dissociation and association phase data for each of the peptides. The kinetic data were fitted to 1:1 binding models. Each individual peptide Kd was determined from three separate titrations. Within each titration at least two concentration points were duplicated to ensure stability and robustness of the chip surface.

Compound | Helicity (%) [1] [%] | helicity [2] [%] | Kd (in words) [3] | affinity / binding to eIF4E (in words) [3]
Ac-KKRYSREFLLGF-NH2 [eIF4G^D5S, reference compound] | 0 | 0 |  | 
CC(=O)N[C@@H](CCCCN)C(=O)N[C@@H](CCCCN)C(=O)N[C@@H](CCCNC(=N)N)C(=O)N[C@@H](Cc1ccc(O)cc1)C(=O)N[C@@H](CO)C(=O)N[C@@H](CCCNC(=N)N)C(=O)N[C@@]1(C)CCCC=CCCC[C@@](C)(C(=O)N[C@@H](Cc2ccccc2)C(N)=O)NC(=O)[C@H](CC(C)C)NC(=O)[C@H](CC(C)C)NC(=O)[C@H](Cc2ccccc2)NC1=O (Ac-KKRYSR[S5]FLL[S5]F-NH2; staple 7-11) |  | 24 |  | 
CC(=O)N[C@@H](CCCCN)C(=O)N[C@@H](CCCCN)C(=O)N[C@@H](CCCNC(=N)N)C(=O)N[C@@H](Cc1ccc(O)cc1)C(=O)N[C@@H](CO)C(=O)N[C@@H](CCCNC(=N)N)C(=O)N[C@@H](CCC(=O)O)C(=O)N[C@@]1(C)CCCC=CCCC[C@@](C)(C(N)=O)NC(=O)CNC(=O)[C@H](CC(C)C)NC(=O)[C@H](CC(C)C)NC1=O [sTIP-02, KKRYSRE*LLG*] |  | 18 | nanomolar range | no improvement in binding over eIF4G^D5S
CC[C@H](NC(=O)[C@]1(C)CCCC=CCCC[C@](C)(NC(=O)[C@H](CCCNC(=N)N)NC(=O)[C@H](CO)NC(=O)[C@H](Cc2ccc(O)cc2)NC(=O)[C@H](CCCNC(=N)N)NC(=O)[C@H](CCCCN)NC(=O)[C@H](CCCCN)NC(C)=O)C(=O)N[C@@H](Cc2ccccc2)C(=O)N[C@@H](CC(C)C)C(=O)N[C@@H](CC(C)C)C(=O)N1)C(N)=O (relative stereo) [sTIP-01^F12&, KKRYSR*FLL*&] | 44 | 44 |  | improved Kd values as compared to sTIP-01
CC[C@H](NC(=O)C(C)(C)NC(=O)[C@H](CC(C)C)NC(=O)[C@H](CC(C)C)NC(=O)[C@H](Cc1ccccc1)NC(=O)C(C)(C)NC(=O)[C@H](CCCNC(=N)N)NC(=O)[C@H](CO)NC(=O)[C@H](Cc1ccc(O)cc1)NC(=O)[C@H](CCCNC(=N)N)NC(=O)[C@H](CCCCN)NC(=O)[C@H](CCCCN)NC(C)=O)C(N)=O [TIP-01^F12&, KKRYSRXFLLX&] (Ac-KKRYSR[Aib]FLL[Aib][Abu]-NH2) | 11 | 11 |  | 
CC(=O)N[C@@H](CCCCN)C(=O)N[C@@H](CCCCN)C(=O)N[C@@H](CCCNC(=N)N)C(=O)N[C@@H](Cc1ccc(O)cc1)C(=O)N[C@@H](CO)C(=O)N[C@@H](CCCNC(=N)N)C(=O)N[C@@]1(C)CCCC=CCCC[C@@](C)(C(N)=O)NC(=O)[C@H](CC(C)C)NC(=O)[C@H](CC(C)C)NC(=O)[C@H](Cc2ccccc2)NC1=O (Ac-KKRYSR[S5]FLL[S5]-NH2; staple 7-11) |  | 72 |  | 
CC(=O)N[C@@H](CCCCN)C(=O)N[C@@H](CCCCN)C(=O)N[C@@H](CCCNC(=N)N)C(=O)N[C@@H](Cc1ccc(O)cc1)C(=O)N[C@@H](CO)C(=O)N[C@@H](CCCNC(=N)N)C(=O)NC(C)(C)C(=O)N[C@@H](Cc1ccccc1)C(=O)N[C@@H](CC(C)C)C(=O)N[C@@H](CC(C)C)C(=O)NC(C)(C)C(=O)N[C@@H](Cc1ccccc1)C(N)=O (Ac-KKRYSR[Aib]FLL[Aib]F-NH2) |  | 2 |  | 
CC(=O)N[C@@H](CCCCN)C(=O)N[C@@H](CCCCN)C(=O)N[C@@H](CCCNC(=N)N)C(=O)N[C@@H](Cc1ccc(O)cc1)C(=O)N[C@@H](CO)C(=O)N[C@@H](CCCNC(=N)N)C(=O)N[C@@]1(C)CCCC=CCCC[C@@](C)(C(=O)N[C@@H](CC(C)C)C(N)=O)NC(=O)[C@H](CC(C)C)NC(=O)[C@H](CC(C)C)NC(=O)[C@H](CCC(N)=O)NC1=O (relative stereo) [sTIP-04, KKRYSR*QLL*L] | 63 |  |  | 
CC(=O)N[C@@H](CCCCN)C(=O)N[C@@H](CCCCN)C(=O)N[C@@H](CCCNC(=N)N)C(=O)N[C@@H](Cc1ccc(O)cc1)C(=O)N[C@@H](CO)C(=O)N[C@@H](CCCNC(=N)N)C(=O)N[C@@]1(C)CCCC=CCCC[C@@](C)(C(=O)N[C@@H](Cc2ccccc2)C(N)=O)NC(=O)[C@H](CC(C)C)NC(=O)[C@H](CC(C)C)NC(=O)[C@H](C)NC1=O (relative stereo) [sTIP-01^F8A, KKRYSR*ALL*F] |  | 80 |  | improved Kd values as compared to sTIP-01
CC(=O)N[C@@H](CCCCN)C(=O)N[C@@H](CCCCN)C(=O)N[C@@H](CCCNC(=N)N)C(=O)N[C@@H](Cc1ccc(O)cc1)C(=O)N[C@@H](CO)C(=O)N[C@@H](CCCNC(=N)N)C(=O)NC(C)(C)C(=O)N[C@@H](C)C(=O)N[C@@H](CC(C)C)C(=O)N[C@@H](CC(C)C)C(=O)NC(C)(C)C(=O)N[C@@H](Cc1ccccc1)C(N)=O [TIP-01^F8A, KKRYSRXALLXF] (Ac-KKRYSR[Aib]ALL[Aib]F-NH2) | 10 | 10 |  | 
CC(=O)N[C@@H](CCCCN)C(=O)N[C@@H](CCCCN)C(=O)N[C@@H](CCCNC(=N)N)C(=O)N[C@@H](Cc1ccc(O)cc1)C(=O)N[C@@H](CO)C(=O)N[C@@H](CCCNC(=N)N)C(=O)NC(C)(C)C(=O)N[C@@H](Cc1ccccc1)C(=O)N[C@@H](CC(C)C)C(=O)N[C@@H](CC(C)C)C(=O)NC(C)(C)C(N)=O (Ac-KKRYSR[Aib]FLL[Aib]-NH2) |  | 7 |  | 
CC(=O)N[C@@H](CCCCN)C(=O)N[C@@H](CCCCN)C(=O)N[C@@H](CCCNC(=N)N)C(=O)N[C@@H](Cc1ccc(O)cc1)C(=O)N[C@@H](CO)C(=O)N[C@@H](CCCNC(=N)N)C(=O)NC(C)(C)C(=O)N[C@@H](CCC(N)=O)C(=O)N[C@@H](CC(C)C)C(=O)N[C@@H](CC(C)C)C(=O)NC(C)(C)C(=O)N[C@@H](CC(C)C)C(N)=O [TIP-04, KKRYSRXQLLXL] | 4 | 4 |  | 
